Measurements published in patent US20040224408A1, “THAP proteins as nuclear receptors for chemokines and roles in transcriptional regulation, cell proliferation and cell differentiation” (published 2004).

T1: THAP1 THAP domain (Homo sapiens, UniProt Q9NVV9 SEQ:1-90)
T1 sequence: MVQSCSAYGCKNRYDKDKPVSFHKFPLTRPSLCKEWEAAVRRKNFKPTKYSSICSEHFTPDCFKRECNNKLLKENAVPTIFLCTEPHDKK

T2: human THAP1 (THanatos (death)-Associated Protein-1), full length (human, UniProt Q9NVV9 1-213)
T2 construct: also called hTHAP1; FLJ10477
T2 sequence: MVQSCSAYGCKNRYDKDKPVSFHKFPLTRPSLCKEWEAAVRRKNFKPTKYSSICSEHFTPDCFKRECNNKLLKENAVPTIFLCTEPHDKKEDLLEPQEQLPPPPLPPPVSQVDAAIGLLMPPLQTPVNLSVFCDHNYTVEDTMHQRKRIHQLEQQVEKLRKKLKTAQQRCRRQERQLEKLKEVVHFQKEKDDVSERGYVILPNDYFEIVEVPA

T3: human chemokine SLC/CCL21, mature form (amino acids 24-134) (human, UniProt O00585 24-134)
T3 construct: also called SLC/6Ckine; SLC/CCL21 wild type
T3 sequence: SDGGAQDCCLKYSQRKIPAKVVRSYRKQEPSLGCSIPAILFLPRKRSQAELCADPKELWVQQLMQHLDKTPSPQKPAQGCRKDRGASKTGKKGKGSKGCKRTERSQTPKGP


Key:
[1] = target: T1, THAP1 THAP domain; test: EMSA; 20 mM Tris-HCl pH 7.5, 100 mM KCl, room temperature; settings: tags: C-terminal His6 (pET-21c); label: 32P
Description: To confirm that the THAP domain is a novel sequence specific DNA-binding domain, electrophoretic mobility shift assays (EMSA) were carried out using wild-type or mutant THAP domain responsive elements (THRE) determined by SELEX (see Example 28 and FIGS. 18 and 24). Double-stranded probes used in EMSA experiments were purified on 12% polyacrylamide gels, ³²P end labeled with T4 polynucleotide kinase and quantified by Cerenkov counting. About 20 ng of purified THAP domain from human THAP1 (prepared as described in Example 28) was incubated with 30000 cpm of the appropriate probe (about 2 ng). Binding reactions were carried out for 10 minutes at room temperature in 20 μl binding buffer (20 mM Tris-HCl pH 7.5, 100 mM KCl, 0.1% NP-40, 100 μg/ml BSA, 2.5 mM DTT, 5% glycerol, 200 ng poly (dI-dC)). Electrophoresis was performed on 8% (29:1) polyacrylamide gels containing 5% glycerol. Gels were run in 0.25×TBE at 150V and 4° C., dried and exposed on a phosphoimager screen (Molecular Dynamics). Sequences of wild type and mutant THRE oligonucleotides used in EMSA experiments were as follow (mutations are indicated in bold): wild-type probe 3, 5′-[…]-3′ (SEQ ID NO: 313); mutant probe 3mut1, 5′-[…]-3′ (SEQ ID NO: 314); mutant probe 3mut3, 5′-[…]-3′ (SEQ ID NO: 319); mutant probe 3mut4, 5′-[…]-3′ (SEQ ID NO: 320); mutant probe 3mut14, 5′-[…]-3′ (SEQ ID NO: 321); mutant probe 3mut5, 5′-[…]-3′ (SEQ ID NO: 322).
For competition experiments, 50-, 150-, and 250-fold molar excess of unlabelled wild-type (THRE competitor, probe 3) or mutant (non-specific competitor, probe 3mut1) THRE oligonucleotides were added to the reaction mixture just before the addition of the probe.

[2] = target: T2, human THAP1 (THanatos …); test: yeast two-hybrid, pGADT7-THAP1 mutant with pGBKT7-THAP1 wild-type
Description: Two-hybrid interaction between THAP1 mutants and THAP1 wild type was tested by cotransformation of AH109 with pGADT7-THAP1-C1, -C2, -C3, -N1, -N2 or -N3 and pGBKT7-THAP1 wild-type and selection of transformants by His and Ade double auxotrophy according to manufacturer's instructions ([…] two-hybrid system 3, Clontech).

[3] = target: T3, human chemokine SLC/CCL21, mature form …; test: yeast two-hybrid, pGADT7-THAP1 mutant with pGBKT7-SLC/CCL21
Description: Two-hybrid interaction between THAP1 mutants and chemokine SLC/CCL21 was tested by cotransformation of AH109 with pGADT7-THAP1-C1, -C2, -C3, -N1, -N2 or -N3 and pGBKT7-SLC/CCL21 and selection of transformants by His and Ade double auxotrophy according to manufacturer's instructions ([…] two-hybrid system 3, Clontech). pGBKT7-SLC/CCL21 vector was generated by subcloning the BamHI SLC/CCL21 fragment from pGBT9-SLC (see example 1) into the unique BamHI cloning site of vector pGBKT7 (Clontech).

[4] = target: T4, Glutathione S-transferase (GST) control protein (pGEX-2T) (UniProt P08515 1-218 = GST); test: GST pull-down, immobilized GST control, in vitro translated 35S-labelled chemokine
T4 construct: Negative control immobilized on glutathione sepharose; also called GST beads; immobilized GST alone
T4 sequence (P08515 whole entry): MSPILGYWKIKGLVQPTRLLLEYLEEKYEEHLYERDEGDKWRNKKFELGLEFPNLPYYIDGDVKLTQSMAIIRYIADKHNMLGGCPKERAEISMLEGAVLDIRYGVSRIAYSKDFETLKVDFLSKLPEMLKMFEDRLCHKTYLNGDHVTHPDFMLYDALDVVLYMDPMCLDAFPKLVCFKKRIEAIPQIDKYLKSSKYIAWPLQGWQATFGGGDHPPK
Description: To confirm the interaction observed in yeast two-hybrid system, we performed in vitro GST pull down assays. THAP1, expressed as a GST-tagged fusion protein and immobilized on glutathione sepharose, was incubated with radiolabeled chemokines that were translated in vitro.
In vitro-translated chemokines were generated with the TNT-coupled reticulocyte lysate system (Promega, Madison, Wis., USA) using as templates pGBKT7-CCL21, -CCL19, -CXCL9, -CXCL10 and CXCL11 chemokine vectors (see Example 32) or pCMV-SPORT6-CCL5 plasmid (Image clone No. 4185200). In vitro-translated IFNγ cytokine was generated similarly using as template plasmid pGBKT7-IFNγ. A 25 μvolume of ³⁵S-labelled chemokine was incubated with immobilized GST-THAP1 or GST proteins overnight at 4° C., in the following binding buffer: 10 mM NaPO4 pH 8.0, 140 mM NaCl, 3 mM MgCl₂, 1 mM dithiothreitol (DTT), 0.05% NP40, and 0.2 mM phenylmethyl sulphonyl fluoride (PMSF), 1 mM Na vanadate, 50 mM β-glycerophosphate, 25 μg/ml chymotrypsine, 5 μg/ml aprotinin, and 10 μg/ml leupeptin. Beads were then washed 5 times in 1 ml binding buffer. Bound proteins were eluted with 2×Laemmli SDS-PAGE sample buffer, fractionated by 10% SDS-PAGE and visualized by fluorography using Amplify (Amersham Pharmacia Biotech). GST/THAP1 specifically bound to chemokines CCL21, CCL19, CCL5, CXCL9, CXCL10 and CXCL11 but not cytokine IFNγ (FIGS. 19 and 20). […] CXCL10 also bound to immobilized GST-THAP1 (indicated by ++ in the column labelled “In vitro binding to GST-THAP1”).

[5] = target: T2, human THAP1 (THanatos …); test: yeast two-hybrid, pGADT7-THAP1 with pGBKT7-chemokine
Source text: […]

| Binder | binding result [1] | binding result [2] | also measured |
| --- | --- | --- | --- |
| 3mut4 (dsDNA) DNA 1: AGCAAGTAAGTGCAAACTACTTCAT DNA 2: ATGAAGTAGTTTGCACTTACTTGCT | no binding | – | – |
| 3mut3 (dsDNA) DNA 1: AGCAAGTAAGGTCAAACTACTTCAT DNA 2: ATGAAGTAGTTTGACCTTACTTGCT | no binding | – | – |
| 3mut5 (dsDNA) DNA 1: AGCAAGTAAGGGAAAACTACTTCAT DNA 2: ATGAAGTAGTTTTCCCTTACTTGCT | no binding | – | – |
| THAP1-N3 deletion mutant (amino acids 1-192) (other, Tested as a Gal4-BD or Gal4-AD fusion, as in vitro translated 35S-labelled protein and as an EGFP fusion) MVQSCSAYGCKNRYDKDKPVSFHKFPLTRPSLCKEWEAAVRRKNFKPTKYSSICSEHFTPDCFKRECNNKLLKENAVPTIFLCTEPHDKKEDLLEPQEQLPPPPLPPPVSQVDAAIGLLMPPLQTPVNLSVFCDHNYTVEDTMHQRKRIHQLEQQVEKLRKKLKTAQQRCRRQERQLEKLKEVVHFQKEKDD | – | binds | – |
| THAP1-C3 deletion mutant (amino acids 143-213) (other, Tested as a Gal4-BD or Gal4-AD fusion, as in vitro translated 35S-labelled protein and as an EGFP fusion) MHQRKRIHQLEQQVEKLRKKLKTAQQRCRRQERQLEKLKEVVHFQKEKDDVSERGYVILPNDYFEIVEVPA | – | binds | binding result [3]: binds |
| THAP1-C1 deletion mutant (amino acids 90-213) (other, Tested as a Gal4-BD or Gal4-AD fusion, as in vitro translated 35S-labelled protein and as an EGFP fusion; also called THAP1ΔTHAP; THAP1?THAP) KEDLLEPQEQLPPPPLPPPVSQVDAAIGLLMPPLQTPVNLSVFCDHNYTVEDTMHQRKRIHQLEQQVEKLRKKLKTAQQRCRRQERQLEKLKEVVHFQKEKDDVSERGYVILPNDYFEIVEVPA | – | binds | – |
| THAP1-C2 deletion mutant (amino acids 120-213) (other, Tested as a Gal4-BD or Gal4-AD fusion, as in vitro translated 35S-labelled protein and as an EGFP fusion) MPPLQTPVNLSVFCDHNYTVEDTMHQRKRIHQLEQQVEKLRKKLKTAQQRCRRQERQLEKLKEVVHFQKEKDDVSERGYVILPNDYFEIVEVPA | – | binds | binding result [3]: binds |
| human chemokine I-TAC/CXCL11, mature form (amino acids 22-94) (ligand, The range is stated on the GenBank entry; Tested as a Gal4-BD fusion (pGBKT7-CXCL11) and as in vitro translated 35S-labelled protein from that vector) FPMFKRGRCLCIGPGVKAVKVADIEKASIMYPSNNCDKIEVIITLKENKGQRCLNPKSKQARLIIKKVERKNF | – | – | binding result [4]: no binding |
| human chemokine ELC/CCL19, mature form (amino acids 22-98) (ligand, The range is stated on the GenBank entry; Tested as a Gal4-BD fusion (pGBKT7-CCL19) and as in vitro translated 35S-labelled protein from that vector; also called MIP3b/CCL19) GTNDAEDCCLSVTQKPIPGYIVRNFHYLLIKDGCRVPAVVFTTLRGRQLCAPPDQPWVERIIQRLQRTSAKMKRRSS | – | – | binding result [4]: no binding; binding result [5]: binds |
| 3mut14 (dsDNA) DNA 1: AGCAAGTAAGGGCCAACTACTTCAT DNA 2: ATGAAGTAGTTGGCCCTTACTTGCT | no binding | – | – |
| human chemokine MIG/CXCL9, mature form (amino acids 23-125) (ligand, The range is stated on the GenBank entry; Tested as a Gal4-BD fusion (pGBKT7-CXCL9) and as in vitro translated 35S-labelled protein from that vector) TPVVRKGRCSCISTNQGTIHLQSLKDLKQFAPSPSCEKIEIIATLKNGVQTCLNPDSADVKELIKKWEKQVSQKKKQKNGKKHQKKKVLKVRKSQRSRQKKTT | – | – | binding result [4]: no binding; binding result [5]: binds |
